{"source": "patent EP4692351A1", "about": "“ANTI-CD25 ANTIBODY AND ANTI-CD25 ANTIBODY-DRUG CONJUGATE” (priority 2023, dated 2024)", "molecules": {"B1": {"name": "hMAb1A antibody (antibody, human IgG1, kappa, V domains shown)", "VH": "EVQLVESGGGLVQPGGSLRLSCAASGFTFNNYYMVWVRQAPGKGLEWVAYISTGGGTTYYRESVKGRFTISRDNSKSTLYLQMNSLRAEDTAVYYCTTSVYFSDGSSHYDGEWFAYWGQGTLVTVSS", "VL": "DIVMTQSPDSLAVSLGERATINCKASESVSTRMHWYQQKPGQPPKLLIYKASNLASGVPARFSGSGSGTDFTLTISSLQAEDVAVYYCQQSWNGWAFGQGTKVEIKR", "notes": "Humanized MAb1, human IgG1 / kappa; also called humanized antibody hMAb1A; hMAb1 (in places)"}, "B2": {"name": "hMAb1B antibody (antibody, human IgG1, kappa, V domains shown)", "VH": "B1 VH with R61A, E62D", "VL": "EIVLTQSPGTLSLSPGERATLSCKASESVSTRMHWYQQKPGQAPRLLIYKASNLASGVPARFSGSGSGTDFTLTISRLEPEDFAVYFCQQSWNGWAFGQGTKVEIKR", "notes": "Humanized MAb1, human IgG1 / kappa; also called humanized antibody hMAb1B"}, "B3": {"name": "MAb1 antibody (antibody, V domains shown)", "VH": "B1 VH with G16R, R19K, G42T, S75A, N84D, A88S, V93T", "VL": "DTVLTQSPALAVSPGERVTISCKASESVSTRMHWYQQKPGQQPKLLIYKASNLASGVPARFSGSGSGTDFTLTIDPVEADDTATYFCQQSWNGWAFGGGTKLELKR", "notes": "Rat monoclonal antibody from a hybridoma"}, "B4": {"name": "cMAb1_hIgG1LALA antibody (antibody, V domains shown)", "VH": "B1 VH with G16R, R19K, G42T, S75A, N84D, A88S, V93T", "VL": "B3 VL", "notes": "Chimeric: rat MAb1 variable regions, human IgG1 LALA heavy constant region, human kappa constant region; also called human IgG1LALA chimeric MAb1"}, "B5": {"name": "MAb2 antibody (antibody, V domains shown)", "VH": "QVKLLQSGAALEKPGASVKMSCKASGYTFTDYWVIWVKQSHGKSLEWIGEIYPNSGATNFNAKFKGKATLTVDKSTSTAYMELSRLTSEDSAIYYCTTYDFDYWGQGVMVTVSS", "VL": "DVVLTQTPPTLSATIGQSVSISCRSSQSLSHTNGNTYLYWLLQRPGQPPQLLIYFVSRLESGVPNRFSGSGSGTDFTLKISGVEAEDLGLYYCVQSTHVPNTFGAGTKLELKR", "notes": "Rat monoclonal anti-mouse CD25 antibody from a hybridoma"}, "B6": {"name": "cMAb2_hIgG1LALA antibody (antibody, V domains shown)", "VH": "B5 VH", "VL": "B5 VL", "notes": "21-239 is used here; also called human IgG1LALA chimeric MAb2"}}, "key": {"mouse CD25 [1]": {"biological_target": "T1, mouse CD25 (mouse, UniProt P01590 22-268)", "T1 construct": "Expressed on transiently transfected CHO-K1 cells in the Cell-ELISA; Endogenous on CTLL-2 cells and mouse pan T cells in the functional assays; also called mCD25; pCMV3-mCD25 (expression vector)", "T1 sequence": "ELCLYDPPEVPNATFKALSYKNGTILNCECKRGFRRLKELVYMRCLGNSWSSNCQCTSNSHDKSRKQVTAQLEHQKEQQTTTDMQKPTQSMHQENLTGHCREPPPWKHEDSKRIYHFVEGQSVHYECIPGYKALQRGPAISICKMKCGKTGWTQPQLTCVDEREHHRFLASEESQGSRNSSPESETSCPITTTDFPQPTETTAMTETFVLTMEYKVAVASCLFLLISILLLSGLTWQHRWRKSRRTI", "test": "cell-based or functional assay"}, "human CD25 [2]": {"biological_target": "T2, human CD25 (human, UniProt P01589 22-272)", "T2 construct": "Expressed on transiently transfected CHO-K1 cells in the Cell-ELISA; Endogenous on human T cells, PBMC, Karpas-299 and EoL-1 in the functional assays; also called hCD25; IL-2 receptor alpha chain", "T2 sequence": "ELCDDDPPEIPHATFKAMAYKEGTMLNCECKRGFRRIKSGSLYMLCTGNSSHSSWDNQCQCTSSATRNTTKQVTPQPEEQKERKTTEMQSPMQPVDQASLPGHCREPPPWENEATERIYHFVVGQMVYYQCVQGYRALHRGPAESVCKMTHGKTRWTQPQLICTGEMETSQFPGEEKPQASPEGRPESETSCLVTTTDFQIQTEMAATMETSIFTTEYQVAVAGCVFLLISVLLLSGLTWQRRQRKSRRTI", "test": "cell-based or functional assay"}, "[3]": {"biological_target": "T3, CD25 antigen used as analyte in the Biacore measurement (Homo sapiens (Human), UniProt P01589 22-213, limits assumed)", "T3 construct": "also called the antigen", "T3 sequence": "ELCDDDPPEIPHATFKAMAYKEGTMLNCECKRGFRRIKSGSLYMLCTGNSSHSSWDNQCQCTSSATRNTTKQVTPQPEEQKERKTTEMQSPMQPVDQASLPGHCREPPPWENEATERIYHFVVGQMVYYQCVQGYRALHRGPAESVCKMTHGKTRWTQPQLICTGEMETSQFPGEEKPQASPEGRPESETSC", "test": "SPR, Biacore T200, antibody captured on anti-human IgG (Fc) on CM5, antigen as analyte, 1:1 binding model"}, "mouse CD25 [4]": {"biological_target": "T1, mouse CD25", "test": "Cell-ELISA on transfected CHO-K1 cells, anti-human IgG-HRP, A450"}, "cynomolgus monkey CD25 [5]": {"biological_target": "T4, cynomolgus monkey CD25 (cynomolgus monkey, UniProt Q5MNY4 22-272 (rhesus entry))", "T4 construct": "Expressed on transiently transfected CHO-K1 cells; also called cCD25; pCI-cCD25 (expression vector)", "T4 chain": "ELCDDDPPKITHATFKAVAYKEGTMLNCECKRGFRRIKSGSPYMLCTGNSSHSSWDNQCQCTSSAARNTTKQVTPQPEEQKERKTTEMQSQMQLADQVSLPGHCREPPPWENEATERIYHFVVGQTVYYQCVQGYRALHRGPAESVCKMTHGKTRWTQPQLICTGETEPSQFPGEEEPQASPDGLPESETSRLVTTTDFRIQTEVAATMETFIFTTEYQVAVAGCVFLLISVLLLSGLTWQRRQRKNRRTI", "test": "Cell-ELISA on transfected CHO-K1 cells, anti-human IgG-HRP, A450; 20 to 0.001 µg/mL"}, "mouse CD25 [6]": {"biological_target": "T1, mouse CD25", "test": "Cell-ELISA on transfected CHO-K1 cells, anti-rat IgG-HRP, A450"}, "cynomolgus monkey CD25 [7]": {"biological_target": "T4, cynomolgus monkey CD25", "test": "Cell-ELISA on transfected CHO-K1 cells, anti-rat IgG-HRP, A450; 0.02 to 10 µg/mL"}, "cynomolgus monkey CD25 [8]": {"biological_target": "T4, cynomolgus monkey CD25", "test": "Cell-ELISA on transfected CHO-K1 cells, anti-human IgG-HRP, A450; 80 to 0.001 µg/mL"}, "cynomolgus monkey CD25 [9]": {"biological_target": "T4, cynomolgus monkey CD25", "test": "Cell-ELISA on transfected CHO-K1 cells, anti-rat IgG-HRP, A450"}, "human CD25 [10]": {"biological_target": "T2, human CD25", "test": "Cell-ELISA on transfected CHO-K1 cells, anti-rat IgG-HRP, A450"}, "cynomolgus monkey CD25 [11]": {"biological_target": "T4, cynomolgus monkey CD25", "test": "Cell-ELISA on transfected CHO-K1 cells, anti-human IgG-HRP, A450"}, "human CD25 [12]": {"biological_target": "T2, human CD25", "test": "Cell-ELISA on transfected CHO-K1 cells, anti-human IgG-HRP, A450"}}, "note": "Residue numbers refer to the chain shown, from its start.", "data": [{"molecule": "Purified NA/LE Rat Anti-Mouse CD25 (PC61 antibody)", "values": [{"measurement": "cell survival rate of mouse pan T cells with Fab-ZAP rat (saporin), % of control antibody; 60 ng/mL", "setting": "mouse CD25 [1]", "value": 59, "unit": "%"}, {"measurement": "cell survival rate of mouse pan T cells with Fab-ZAP rat (saporin), % of control antibody; 300 ng/mL", "setting": "mouse CD25 [1]", "value": 39, "unit": "%"}, {"measurement": "cell survival rate of mouse pan T cells with Fab-ZAP rat (saporin), % of control antibody; 1500 ng/mL", "setting": "mouse CD25 [1]", "value": 31, "unit": "%"}, {"measurement": "cell survival rate of mouse pan T cells with Fab-ZAP rat (saporin), % of control antibody; 7500 ng/mL", "setting": "mouse CD25 [1]", "value": 29, "unit": "%"}]}, {"molecule": "PC61_hIgG1LALA (antibody)", "values": [{"measurement": "amount of pSTAT5 in mouse CTLL-2 cells with IL-2 (AlphaLISA), % of rat IgG2a control group; antibody solution 20 µg/mL", "setting": "mouse CD25 [1]", "value": 48, "unit": "%"}]}, {"molecule": "basiliximab (antibody)", "values": [{"measurement": "amount of pSTAT5 in human PBMC with IL-2 (AlphaLISA), % of hIgG1 control group", "setting": "human CD25 [2]", "value": 0.01, "unit": "%"}, {"measurement": "amount of pSTAT5 in human PBMC with IL-2 (AlphaLISA), % of human IgG1 control group", "setting": "human CD25 [2]", "value": 1.2, "unit": "%"}, {"measurement": "amount of pSTAT5 in human PBMC with IL-2 (AlphaLISA), % of rat IgG2a control group; antibody 20 µg/mL", "setting": "human CD25 [2]", "value": 1, "unit": "%"}]}, {"molecule": "7G7B6 (antibody)", "values": [{"measurement": "amount of pSTAT5 in human PBMC with IL-2 (AlphaLISA), % of rat IgG2a control group; antibody 20 µg/mL", "setting": "human CD25 [2]", "value": 103, "unit": "%"}]}, {"molecule": "B1", "values": [{"measurement": "Kd", "setting": "[3]", "value": 2.9, "unit": "nM"}, {"measurement": "binding result", "setting": "mouse CD25 [4]", "value": "no binding (tested: 20 to 0.001 µg/mL)"}, {"measurement": "binding result", "setting": "cynomolgus monkey CD25 [5]", "value": "binds"}]}, {"molecule": "B2", "values": [{"measurement": "Kd", "setting": "[3]", "value": 5.7, "unit": "nM"}, {"measurement": "binding result", "setting": "cynomolgus monkey CD25 [5]", "value": "binds"}]}, {"molecule": "B3", "values": [{"measurement": "binding result", "setting": "mouse CD25 [6]", "value": "no binding (tested: up to 10 µg/mL)"}, {"measurement": "binding result", "setting": "cynomolgus monkey CD25 [7]", "value": "binds"}]}, {"molecule": "B4", "values": [{"measurement": "binding result", "setting": "cynomolgus monkey CD25 [8]", "value": "binds"}, {"measurement": "binding result", "setting": "mouse CD25 [4]", "value": "no binding (tested: 80 to 0.001 µg/mL)"}]}, {"molecule": "B5", "values": [{"measurement": "binding result", "setting": "cynomolgus monkey CD25 [9]", "value": "no binding (tested: up to 10 µg/mL)"}, {"measurement": "binding result", "setting": "human CD25 [10]", "value": "no binding (tested: up to 10 µg/mL)"}]}, {"molecule": "B6", "values": [{"measurement": "binding result", "setting": "cynomolgus monkey CD25 [11]", "value": "no binding (tested: 80 to 0.001 µg/mL)"}, {"measurement": "binding result", "setting": "human CD25 [12]", "value": "no binding (tested: 80 to 0.001 µg/mL)"}]}]}
